Laboratory results as given in patent US9868768B2, “Hydrophobic modified pres-derived peptides of hepatitis B virus (HBV) and their use as vehicles for the specific delivery of compounds to the liver” (RUPRECHT-KARLS-UNIVERSITAT HEIDELBERG, priority 2008, dated 2018).
Entries after “also recorded” stand apart in the source; their conditions may differ.

Key:
[1] = Biodistribution after subcutaneous application in uPA+/−/RAG-2−/−Pfp−/− mice; assay type: in vivo; conditions: 2.25 μg 131I-labeled peptide s.c., 10 min to 24 h
[2] = Biodistribution of 131I-labelled peptides after subcutaneous injection in NMRI mice; assay type: in vivo, male NMRI mice; conditions: 2.25 μg 131I-labeled peptide s.c., 10 min, 1 h, 4 h and 24 h post injection
Procedure: Per time point 2.25 μg of ^131I-labeled HBVpreS/2-48^myr(D) were subcutaneously injected into NMRI mice (N=3). 10 min, 1 h, 4 h and 24 h post injection animals were sacrificed and the organ-specific (blood, lung, heart, spleen, liver, kidney and muscle) peptide accumulations (% ID/g) were determined.
The biodistribution of the hydrophobic modified preS-derived peptides was studied in male NMRI mice. All experiments were performed in compliance with German laws. The peptides, containing an additional Tyr-residue at the C-terminal end were labelled with ^131I (Amersham Biosciences, Freiburg, Germany) by the chloramine-T method and purified by HPLC. The labelled peptides were subcutaneously administered by injection of a solution in 50% DMSO. At selected times mice were sacrificed and the radioactivity contained in the blood, heart, lung, spleen, liver, kidney, muscle and brain was measured in a γ-counter (Canberra Packard, Rüsselsheim, Germany) and expressed as a percentage of injected dose per gram of tissue (% ID/g).

[3] = Stability assessment of peptide after extraction from the liver (reversed phase HPLC); assay type: in vivo, uPA+/−/RAG-2−/−Pfp−/− mice; conditions: liver extracts 24 h post subcutaneous injection, 131I-labelled
Procedure: Per animal approximately 2.25 μg of the ^131I-labelled peptides were subcutaneously injected. At the indicated time points animals were sacrificed and the liver specific peptide accumulation (% ID/g) was determined. (B) Reversed phase HPLC of pure ^131I-labelled HBVpreS/2-48^myr(D) (brown curve) in comparison to liver extracts (orange curve) obtained 24 h post subcutaneous injection into uPA+/−/RAG-2−/−Pfp−/− mice of the same peptide. Note that 50% of detectable activity is eluting at fraction 13. Since the hydrophobic myristoyl residue is located at the N-terminus and the iodinated Tyr-residue at the C-terminus fraction 13 represents the unaltered full-length peptide.
To determine the peptide stability in the liver 131I labelled HBVpreS/2-48^myr (D) was extracted from one liver lobe 24 h post subcutaneous injection. To that aim, 1 ml water per gram frozen liver tissue was added to the sample. After homogenization an equal volume of acetonitrile was added and the homogenization was repeated. After centrifugation (2×10 min at 4000×g) this solution was separated on a reverse phase HPLC column and the radioactivity of each fraction was quantified in a gamma counter.

[4] = test system: Primary mouse hepatocytes (PMH); test: FACS analysis of binding to primary mouse hepatocytes; assay type: cell-based; conditions: 200 nM, 30 minutes at room temperature
Procedure: Cryo-preserved primary hepatocytes were thawed and washed with serum-free medium. In each reaction 4×10^5 cells/ml were incubated with the respective peptide at a concentration of 200 nM in serum-free cell culture medium. The staining was performed for 30 minutes at room temperature with frequent mixing. Subsequently, cells were washed extensively and resuspended in PBS to proceed with the FACS analysis.

HepaRG cells = test: Immunofluorescence binding to HepaRG cells; assay type: cell-based; conditions: 400 nM peptide, 4 hours at 37° C.
Procedure: (§1) Cells were incubated with or without 400 nM peptide for 4 hours at 37° C.:
HepaRG cells were grown in William's E medium supplemented with 10% fetal calf serum (FCS), 100 units/ml penicillin, 100 μg/ml streptomycin, 5 μg/ml insulin and 5×10^−5 M hydrocortisone hemisuccinate (10). Cells were passaged 1/5 every two weeks by trypsination. Two to three weeks before infection cell differentiation was induced by adding 2% DMSO into the maintenance medium. The medium was exchanged every 2-3 days.
(§2) Primary hepatocytes grown on cover slips were incubated with the respective peptide at 200 nM in serum-free cell culture medium. After 1 hour incubation at 37° C. cells were fixed and nuclei were stained with DAPI. Fluorescence microscopy was performed on a Spinning Disk Confocal Microscope at 600× magnification.

[5] = test system: Primary mouse hepatocytes (PMH); test: Immunofluorescence binding to primary mouse hepatocytes; assay type: cell-based; conditions: 400 nM peptide, 4 hours at 37° C.; for Binding to primary mouse hepatocytes (PMH): differentiated PMH
Procedure: as §1
[…] After 1 hour incubation at 37° C. cells were fixed and nuclei were stained with DAPI. Fluorescence microscopy was performed on a Spinning Disk Confocal Microscope at 600× magnification.

[6] = test system: primary human hepatocytes (PHH); test: Immunofluorescence binding to primary human hepatocytes; assay type: cell-based; conditions: 400 nM peptide for 4 hours, confocal immunofluorescence
Procedure: Primary human hepatocytes (PHH) were incubated with or without 400 nM peptide for 4 hours:
as §2

HBVpreS/2-48^myr(D): SEQ ID NO. 23, genotype D residues 2-48, N-terminus myristoylated
organ-specific peptide accumulation (biodistribution) [1]: most of the peptide accumulates in the liver
organ-specific peptide accumulation (biodistribution) [2]: most of the peptide accumulates in the liver
detectable activity eluting at fraction 13 (unaltered full-length peptide) in liver extract [3]: 50%

mut myr-FITC: HBVpreS/2-48 myr (C)-FITC with D-Leu and D-Phe at positions L11 and F13 [reference compound]
Binding to primary mouse hepatocytes (PMH), FACS analysis [4]: Only wt myr-FITC binds to the cells
Binding to differentiated HepaRG cells (HepaRG cells): Only wt myr-FITC binds to the cells
Binding to primary mouse hepatocytes (PMH) [5]: Only wt myr-FITC binds to the cells
Binding to primary human hepatocytes (PHH) [6]: only in B binding of the peptide to the cells can be seen

wt myr(−)-FITC: HBVpreS/2-48(C)-FITC without myristoylation [reference compound]
Binding to differentiated HepaRG cells (HepaRG cells): Only wt myr-FITC binds to the cells
Binding to primary mouse hepatocytes (PMH) [5]: Only wt myr-FITC binds to the cells
Binding to primary human hepatocytes (PHH) [6]: only in B binding of the peptide to the cells can be seen

wt myr-FITC: HBVpreS/2-48 myr (C) with lysine at the C-terminus [SEQ ID NO. 39], labelled with FITC
Binding to primary mouse hepatocytes (PMH), FACS analysis [4]: Only wt myr-FITC binds to the cells
Binding to differentiated HepaRG cells (HepaRG cells): Only wt myr-FITC binds to the cells; also recorded: binds only to differentiated cells
Binding to undifferentiated HepaRG cells (HepaRG cells; undifferentiated cells): binds only to differentiated cells
Binding to de-differentiated primary mouse hepatocytes (PMH) ([5]; de-differentiated PMH): binds only to differentiated cells
Binding to primary mouse hepatocytes (PMH) [5]: Only wt myr-FITC binds to the cells; also recorded: binds only to differentiated cells
Binding to primary human hepatocytes (PHH) [6]: only in B binding of the peptide to the cells can be seen
